B1: AIFA567-592 (full length AIF with aa567-592 deleted) (other, mouse, UniProt Q9Z0X1 1-612, looked up)
chain: MFRCGGLAGAFKQKLVPLVRTVYVQRPKQRNRLPGNLFQQWRVPLELQMARQMASSGSSGGKMDNSVLVLIVGLSTIGAGAYAYKTIKEDQKRYNERVMGLGLSPEEKQRRAIASATEGGSVPQIRAPSHVPFLLIGGGTAAFAAARSIRARDPGARVLIVSEDPELPYMRPPLSKELWFSDDPNVTKTLQFRQWNGKERSIYFQPPSFYVSAQDLPNIENGGVAVLTGKKVVHLDVRGNMVKLNDGSQITFEKCLIATGGTPRSLSAIDRAGAEVKSRTTLFRKIGDFRALEKISREVKSITVIGGGFLGSELACALGRKSQASGIEVIQLFPEKGNMGKILPQYLSNWTMEKVKREGVKVMPNAIVQSVGVSGGRLLIKLKDGRKVETDHIVTAVGLEPNVELAKTGGLEIDSDFGGFRVNAELQARSNIWVAGDAACFYDIKLGRRRVEHHDHAVVSGRLAGENMTGAAKPYWHQSMFWSDLGPDVGYEAIGLVDSSLPTVGVFAKATAQDNPKSATEQSGTGIRSESETESEASEITIPPSAPAVPQVPVEGEDYGKGVIFYDGEQHEDLNEVAKLFNIHED
B2: AIFm567-592 (full length AIF with aa567-592 mutated into polyalanines) (other, mouse, UniProt Q9Z0X1 1-612, looked up)
chain: MFRCGGLAGAFKQKLVPLVRTVYVQRPKQRNRLPGNLFQQWRVPLELQMARQMASSGSSGGKMDNSVLVLIVGLSTIGAGAYAYKTIKEDQKRYNERVMGLGLSPEEKQRRAIASATEGGSVPQIRAPSHVPFLLIGGGTAAFAAARSIRARDPGARVLIVSEDPELPYMRPPLSKELWFSDDPNVTKTLQFRQWNGKERSIYFQPPSFYVSAQDLPNIENGGVAVLTGKKVVHLDVRGNMVKLNDGSQITFEKCLIATGGTPRSLSAIDRAGAEVKSRTTLFRKIGDFRALEKISREVKSITVIGGGFLGSELACALGRKSQASGIEVIQLFPEKGNMGKILPQYLSNWTMEKVKREGVKVMPNAIVQSVGVSGGRLLIKLKDGRKVETDHIVTAVGLEPNVELAKTGGLEIDSDFGGFRVNAELQARSNIWVAGDAACFYDIKLGRRRVEHHDHAVVSGRLAGENMTGAAKPYWHQSMFWSDLGPDVGYEAIGLVDSSLPTVGVFAKATAQDNPKSATEQSGTGIRSESETESEASEITIPPSAPAVPQVPVEGEDYGKGVIFYAAAAAAAAAAAAAAAAAAAAAAAAAADGEQHEDLNEVAKLFNIHED

Target: T1, endogenous MIF (macrophage migration inhibitory factor) in HeLa cell lysates (human, UniProt P14174 2-115)
T1 construct: Endogenous protein in lysate, detected by western blot with an anti-MIF antibody; also called MMIF; PAAN
Assay: pull-down of AIF mutants, western blot with anti-MIF antibody

T1 sequence (P14174 2-115 limits assumed): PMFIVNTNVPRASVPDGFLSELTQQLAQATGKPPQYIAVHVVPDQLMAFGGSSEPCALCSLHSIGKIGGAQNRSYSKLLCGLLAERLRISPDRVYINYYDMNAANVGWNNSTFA

Binder	binding result
B1	no binding
B2	no binding
